According to patent US20100323905A1 (published 2010):
Numbering of substitutions follows the chain as printed.

Assays:
beta amyloid Aβ 1-42 = biological target: T1, beta amyloid Aβ 1-42 (UniProt P05067 672-713); experiment: ELISA
T1 construct: domain: Aβ 1-42; The numbers 1-42 count on the Aβ peptide, not on the precursor; In immunohistochemistry the target is amyloid deposited in human brain sections; also called amyloid b-42; Amyloid-b-42

[1] = biological target: T2, recombinant full-length human PABPN1 (nuclear poly(A)-binding protein 1), T7-tagged and His-tagged, produced … (human, UniProt Q86U42 1-306); experiment: BIAcore affinity measurement (SPR, CM5 chip)
T2 construct: also called recombinant PABPN1; T7-tagged PABPN1; not shown: T7 Tag and His Tag from vector pET28a
T2 sequence (looked up): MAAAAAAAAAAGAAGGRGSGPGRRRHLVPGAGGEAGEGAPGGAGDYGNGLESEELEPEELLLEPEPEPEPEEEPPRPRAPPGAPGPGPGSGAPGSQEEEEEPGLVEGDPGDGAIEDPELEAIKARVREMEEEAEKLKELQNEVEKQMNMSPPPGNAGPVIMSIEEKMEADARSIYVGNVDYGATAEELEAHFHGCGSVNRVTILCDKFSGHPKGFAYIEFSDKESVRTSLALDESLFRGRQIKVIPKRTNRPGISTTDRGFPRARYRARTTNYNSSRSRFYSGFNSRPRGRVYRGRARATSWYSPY

[2] = biological target: T3, native PABPN1 purified from bovine calf thymus (bovine, UniProt Q28165 2-306); experiment: affinity measurement (Biacore)
T3 sequence (looked up): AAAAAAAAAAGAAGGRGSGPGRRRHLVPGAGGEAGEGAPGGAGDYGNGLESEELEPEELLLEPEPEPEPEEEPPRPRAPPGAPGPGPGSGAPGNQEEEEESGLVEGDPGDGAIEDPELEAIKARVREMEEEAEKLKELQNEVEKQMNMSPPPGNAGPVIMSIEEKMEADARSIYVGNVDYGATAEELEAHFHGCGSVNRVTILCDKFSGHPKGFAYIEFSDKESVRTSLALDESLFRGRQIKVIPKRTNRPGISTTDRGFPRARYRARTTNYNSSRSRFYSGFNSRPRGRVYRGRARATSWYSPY

[3] = biological target: T4, PABPN1 point mutant M129A (UniProt Q86U42 1-306, limits assumed); experiment: Western blot of purified mutant proteins
T4 sequence (looked up): T2 sequence (looked up) with M129A
From the text: (§1) Proteins were separated by SDS-PAGE followed by Coomassie Brilliant Blue staining or transfer to PVDF Western blotting membranes (Roche Diagnostics, Almere, The Netherlands) using the Mini-PROTEAN 8 system for gel electrophoresis and the Mini Trans-Blot Cell for blotting of the proteins (Bio-Rad Laboratories, Hercules, Calif., USA). […] For phage detection a 10,000-fold dilution of a HRP-conjugated monoclonal antibody which binds to the phage coat protein was used (Amersham Biosciences, Uppsala, Sweden).

[4] = biological target: T5, PABPN1 point mutant V126S (UniProt Q86U42 1-306, limits assumed); experiment: Western blot of purified mutant proteins
T5 sequence (looked up): T2 sequence (looked up) with V126S
From the text: as §1

[5] = biological target: T3, native PABPN1 purified from bovine calf …; experiment: sandwich ELISA: 3F5 coated, native PABPN1 captured
[6] = biological target: T2, recombinant full-length human PABPN1 …; experiment: BIAcore affinity measurement (SPR)
[7] = biological target: T2, recombinant full-length human PABPN1 …; experiment: BIAcore affinity measurement (SPR); remark: listed apart in the source

T1 sequence (P05067 672-713 limits assumed): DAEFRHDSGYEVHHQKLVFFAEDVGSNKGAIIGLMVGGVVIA

B1: VHH 11D (VHH)
VHH: AVQLVESGGGLVQAGGSLRLSCAASQRTFSSYVMGWFRQAPGKEREFVAAIGWSGGSTAYADSVKGRFTISRDNARNTVYLQMNSLKPEDTAVYYCASAPTRWVPRDSRFYDRWGQGTRVTVSS
notes: Selected against amyloid b-42
binding result (beta amyloid Aβ 1-42): binds

B2: VHH 3A (VHH)
VHH: B1 VHH with Q13R, A14D, Q26G
notes: Selected against Aβ 1-42; 15N-labeled in the NMR titration; also called anti-Aβ1-42 VHH 3A
binding result (beta amyloid Aβ 1-42): binds

B3: VHH 3F5 (VHH)
VHH: EVQLVESGGGLVQAGGSLRLSCAASGRTFSGYGMGWFRQAPGKEREFVAAISWRGGNTYYADSVKGRFTISRDNAKNTVWLQMNSLKPEDTAVYYCSGFVRTRDDPSRIRNYWGQGTQVTVST
notes: also called anti-PABPN1 VHH (3F5)
Kd [1]: 5 nM | Kd [2]: 5 nM | binding result [3]: no binding | binding result [4]: no binding

B4: VHH 29 (VHH)
VHH: QVQLVESGGGLVQAGDSLRLSCAASGRTFSSYVMGWFRQAPGKEREFVAAVTGGGISTYYADSVKGRFTISRDNAKNTVYLQMNSLTPEDTAVYYCYARRLNSWGQGTQVTISS
notes: also called antibody fragment 29
binding result [5]: binds | Kd [6]: 11 nM | Kd [7]: 11 nM

B5: VHH 3A9 (VHH)
VHH: QVQLVESGGDLVQAGGSLRLSCAASGHTFDSYGMGWFRQRPGKGREFVAAITMIGGSTHYADSAKGRFTISRDNTKNTISLQMNSLKPEDTAVYYCHAFSRSRFEGYWGQGIQVTVSS
Kd [7]: 8 nM

B6: VHH 08 (VHH)
VHH: EVQLVESGGGLVQPGGSLRLSCVASGRTSRISRMAWFRQVPGNERELVATMSSSGITSYAGSVKGRFTISRDNAKNTVDLQMNSLKPEDTAVYYCKYSSRWNIYWGQGTQVTVSS
notes: Alignment gaps removed
Kd [6]: 57 nM | Kd [7]: 57 nM

B7: VHH 18 (VHH)
VHH: AVQLVESGGGLVQAGGSLRLSCAASGSIVSLATMGWYRQAPGNQRELVATMSSSGITSYAGSVKGRFTYSRDNAKNTVDLQMNSLKPEDTAVYYCKYSSRWNIYWGQGTLVTVSS
notes: Alignment gaps removed
Kd [6]: 7 nM | Kd [7]: 7 nM

B8: VHH 3E9 (VHH)
VHH: QVQLQESGGGLVQPGGSLRLSCVASGFTFSDNAMSWVRRAPGKGLEWVSAINRAGDSARYADSVKGRFTISRDNAKNTLYLQMNSLKPEDTAVYYCTNGGNYRGQGTQVTVSA
Kd [7]: 14 nM
